The values below come from the nanobody polyreactivity screen of Harvey et al. (2022).

The data set is described as follows: yeast display, Sf9 membrane polyspecificity reagent, FACS + sequencing; frameworks hold sequencing errors. The procedure, abridged: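 Synthetic nanobody libraries on Saccharomyces cerevisiae BJ5465 were galactose-induced for 36–48 hours, stained 1 hour at 4 °C with 10% biotinylated, detergent-solubilized Sf9 membrane reagent and enriched on streptavidin microbeads. FACS then separated cells into low and high (top ~1%) gates by anti-HA (expression) and streptavidin (reagent binding) fluorescence. Genes were colony-PCR amplified, MiSeq 2 × 250 sequenced and CDR-length filtered. A clone's polyreactivity label is that of its gate of origin.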
“QVQLVESGGGLVQAGGSLRISCAASGLTFWAYAMGWYRQAPGKEREFLAAISWSGDSTYYADSVKGRFTISRDNAKNTVYLQMNSLKPEDTAVYYCAAEWYYVYIAPYDYWGLGTQVTVSS”: the “polyreactivity (PSR sort gate)” value is “low polyreactivity”.

Consider “QVQLVESGGGLVQAGGSLRISCAASGRIFEVYDMGWYRQAPGKERELVAAISESDDNTYYADSVKGRFTISRDNAKNTVYLQMNSLKPEDTEVYYCNADVPGDTGWWGFDYWGQGTQVTVSS”, for which the “polyreactivity (PSR sort gate)” value is given as “low polyreactivity”.

As to “QVQLVESGGGLVQAGGSLRISCAASGRIFSWYVMGWYRQAPGKERELVAAISSGGSTYYADSVKGRFTISRDNAKNTVSFQMNSLKPEDTAVYYCAVRPYVYRIGASRLDYWGQGTQVTVSS”, the “polyreactivity (PSR sort gate)” value is “high polyreactivity”.

For the sequence “QVQLVESGGGLVQAGGSLRISCAASGRIFYVYAMGWYRQAPGKERELVAAISTGSPTYYADSVNGRFTISRDNAKNTVYLQMNSLKPEDTAVYFCATGSIHGDFWSFRHQYYYWGQGTQVTVSS”, the “polyreactivity (PSR sort gate)” value is listed as “low polyreactivity”.

On to “QVQLVESGGGLVQAGGSLRISCAASGRTFARYVMGWYRQAPGKERELVAAISGGGGSTYYADSVKGRLTISRDTAKNTVFLQMNSLKPAETAVYYCAAVPEGPNTGDDANGLDYWGQGTQVTVSS”, for which the “polyreactivity (PSR sort gate)” value is listed as “low polyreactivity”.

“QVQLVESGGGLVQAGGSLRISCAASGRTFGPYAMGWYRQAPGKERELGAAITSSGGSTYYADSVKGRFTISRDNAKNTVYLQMNSLKPEDTAVFYCNKLYWRQSLDYDYWGQGTQVTVSS”: the “polyreactivity (PSR sort gate)” value is reported as “low polyreactivity”.

As to “QVQLVESGGGLVQAGGSLRISCAASGRTFGRYTMGWYRQAPGKVRELVASISNTARTNYADSVKGRFTISRDNAKNTVYLQMNSLKPEDTAVYYCASGFVRYRGTRDYWGQGTQVTVSS”, the “polyreactivity (PSR sort gate)” value is listed as “low polyreactivity”.

As to “QVQLVESGGGLVQAGGSLRISCAASGRTFRHYAMGWYIQAPGKEREFVAAISRSGGSTRYADSVKGRFTISRDNAKNSVYLQMNSLKPEDTAVYYCAATSRSYNDYDYWGQGTQVTVSS”, the “polyreactivity (PSR sort gate)” value is given as “high polyreactivity”.

In the case of “QVQLVESGGGLVQAGGSLRISCAASGRTFRKYGMGWYRQAPGKERELLAAITRSGDSTYYADSVKARFTISRDNAMNTVYLQMNSLKPEDTAVYYCNTDGPRTYDTWEYDYWGQGTQVTVSS”, the “polyreactivity (PSR sort gate)” value was “high polyreactivity”.

In the case of “QVQLVESGGGLVQAGGSLRISCAASGRTFSRYAMGGYRQAPGTERELVAAISRRGSSTYYADSVKGRFTISRDNAKNTVYLQINSLKPEDTAVYYCNTVTFPYVPALYDYWGQGTQVTVSS”, the “polyreactivity (PSR sort gate)” value was “high polyreactivity”.

As for “QVQLVESGGGLVQAGGSLRISCAASGRTFWKYVMGWYRQAPGKEMELVAVISRPAGSTYYADSVKGRFTISRDNAKNTVYLQRNSLKPEDTAVYYCDKRPKNKPVLGDYDHWGQGTQVTVSS”, the “polyreactivity (PSR sort gate)” value was “low polyreactivity”.

On to “QVQLVESGGGLVQAGGSLRISCAASGRTFYWNAMGWYRQAPGKERELVASINGGGSTYYADSVKGRFTISRDNAKNTVYLQMNSLKPEDTAVYYCNAESYEFHRAWGDYDYWGQGTQVTVSS”, for which the “polyreactivity (PSR sort gate)” value is “low polyreactivity”.

On to “QVQLVESGGGLVQAGGSLRISCAASGSIFDYYVMGWYRQATGKERELVAAISWSGASTYYADSVKGRCTISRDNAKNTVYLQMNSLKREDTAVYYCAAYYGVNNLIDYDYWGQGTQVTVSS”, for which the “polyreactivity (PSR sort gate)” value is “low polyreactivity”.

Consider “QVQLVESGGGLVQAGGSLRISCAASGSIFGDNAMGWYRHAPGKERELVAAITFSGGSTHYADSVKGRFTISRDTAKNTVYLQMNSLKPEDTAVYYCAKRWRYSKHVNYYYWGQGTQVTVSS”, for which the “polyreactivity (PSR sort gate)” value was “high polyreactivity”.

Turning to “QVQLVESGGGLVQAGGSLRISCAASGSIFGWYAMGWYRPAPGKEREFVATISRRGGRTYYADSVKGRFTISRDNAKNTVYLQMNSLKQEDTAVYYCAANSVYKEDYWGQVTQVTVSS”, the “polyreactivity (PSR sort gate)” value is “high polyreactivity”.

For “QVQLVESGGGLVQAGGSLRISCAASGSIFHTYAMGWYRQAPGKERELVAAITVSGGDTYYADSVKGRFTISRDNAKNTVYLQMHSLKPEDTAVYYCAVDTTTSYTVEYDYWGQGTQVTVSS”, the “polyreactivity (PSR sort gate)” value is “low polyreactivity”.
